Series [1] has as its system MS2 coat protein. As to the kind of experiment: apparent KD of MS2 coat protein, switch ON state; designed switch direction (-1 OFF switch, 1 ON switch): -1; higher = weaker reporter binding. The settings on record: FMN input: 0 or 200 uM; Eterna round: R93 (includes R88 designs). An outline of the steps:
(§1)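 SNAP-549-labelled MS2 coat protein was titrated onto designed RNA switches that had been transcribed on-chip from Illumina sequencing clusters. Amounts doubled from 0.7 or 1.5 nM to 3 µM in 100 mM Tris-HCl pH 7.5, 80 mM KCl, 4 mM MgCl2, with constant ligand or without. Apparent KD is the median per design of normalised cluster binding-curve fits.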

The subject of series [2] is MS2 coat protein. As to the kind of experiment: apparent KD of MS2 coat protein, switch OFF state (with FMN for OFF switches, without FMN for ON switches); designed switch direction (-1 OFF switch, 1 ON switch): -1; higher = weaker reporter binding. Particulars: FMN input: 0 or 200 uM; Eterna round: R93 (includes R88 designs). The procedure, abridged: as §1

From the supplement of paper PMC9170038 come the findings set out here.

On to “AACAGUACAGGAUAUACAUGAGGAUCACCCAUGUGAAAAGAAAGUGGCGUACCACAAAGUAGAAGGGUACUGGA [Mat - Exclusion 3 - JL mod - D24]”, for which the results for the “apparent KD of MS2 coat protein” value in the series with MS2 coat protein [1] and with MS2 coat protein [2] were 27.5 nM and 96.8 nM, respectively.
In the case of “AGAAAACAUGAGGAUCACCCAUGUGAGGAUAUGCGAAAGAAAGAAAGAAAGAAAGAAAGCAGAAGGCACAAGAA [Ex 1 Tesla 2]”, the “apparent KD of MS2 coat protein” value in the series on MS2 coat protein [1] came to 15.6 nM; in the series on MS2 coat protein [2], 44.4 nM.
The like results for “AAUGGUGCAGGAUAUACAUGAGGAUCACCCAUGUACAUCAGACAUAUGGUCGAAACAUGUAGAAGGGCACCAAA [Ex 3May 55]” were, in that order, 107 nM and 336 nM.
In the case of “AAGAAUGAAGGAUAUACAUGAGGAUCACCCAUGUAAAAGAAAGAGGGAAAAGAGAAAAGUAGAAGGUCAAAGAA [Ptolemy XI Alexander II]”, the “apparent KD of MS2 coat protein” value was determined as 19.8 nM in the series on MS2 coat protein [1] and 20.4 nM with MS2 coat protein [2].
The like results for “CAAAACAAAGGAUAUAAAACAGAGGAUAUACAUAAAUAAAAACAUGAGGAUCACCCAUGUAGAAGGCUGAAAAC [Meechl Ex2 R2 m3]” were, in that order, 21.9 nM and 23 nM.
As to “AAAACGGUAGGAUAUACGAUUUGGAACUAGACCGAGGAACCACAUGAGGAUCACCCAUGUAGAAGGACCAAAAA [EX2 Malc#18]”, the entries for the “apparent KD of MS2 coat protein” value with MS2 coat protein [1] and in the series on MS2 coat protein [2] were 11.9 nM and 10.7 nM, respectively.
On the same counts, the results for “AAAAAGGCAGGAUAUACAUGAGGAUCACCCAUGUAAAGAAAGAAAGAAGAAAGGGAAAGUAGAAGGGCCAAAAA [Ex3 sub 1]” are 34.4 nM and 41.2 nM.
The like results for “GGAAAACAUGAGGAUCACCCAUGUAAGGAUAUGCAAAAAAAAGGAUAUAGAAGGAAAAGCAGAAGGUACAAAGG [salish99-ex1-26]” were, in that order, 30.8 nM and 38.2 nM.
The like results for “GGAAAACAUGAGGAUCACCCAUGUCAGGAUAUACAAAGAAAGAAAGAAAAGAAAGAAAGUAGAAGGGACAAAAG [Amethyst 15]” were, in that order, 27.1 nM and 31.9 nM.
“AAGAAGACAGGAUAUACAUGAGGAUCACCCAUGUAAAAGAAAGAAGGGAAAGAGAAAAGUAGAAGGGUCAAGAA [Menkheperre Ini]”: the “apparent KD of MS2 coat protein” value with MS2 coat protein [1] was found to be 23.6 nM; with MS2 coat protein [2], 25.3 nM.
As to “AAAAAACAUGAGGAUCACCCAUGUGAGGAUAUGUACGAAAUAAAUAAAAAAUAAAAGUACAGAAGGCACAAAAA [Mat - Exclusion 1 - Eli mod - D5]”, the “apparent KD of MS2 coat protein” value with MS2 coat protein [1] was determined as 35.5 nM; in the series with MS2 coat protein [2], 32.4 nM.
In the case of “AAGAACCUAGGAUAUACAUGAGGAUCACCCAUGUAAAAGAAAGAAAGGGAAAAGAAAAGUAGAAGGAGGAAGAA [Heqakheperre Shoshenq II]”, the “apparent KD of MS2 coat protein” value came to 12.1 nM in the series on MS2 coat protein [1] and 15.7 nM with MS2 coat protein [2].
For the sequence “AUAAAGCGAGGAUAUACAUGAGGAUCACCCAUGUAAAUAAAUAGGAGAGCCACAAUAAGUAGAAGGUGCAAUAA [JR_Exc003_Sub008]”, the “apparent KD of MS2 coat protein” value in the series on MS2 coat protein [1] worked out at 54.8 nM; in the series with MS2 coat protein [2], 46.5 nM.
The like results for “AAAAAACAUGAGGAUCACCCAUGUAAGGAUAUGCUAAAAAACACGGAAAACGUGAAUAGCAGAAGGUACAAAAG [Mat - Exclusion 1 - Eli mod - D84]” were, in that order, 15.9 nM and 67.7 nM.
The like results for “AAAGGACGAGGAUAUACAUGAGGAUCACCCAUGUAAAAAACAUAGUAAAAGAGCUUGUGUAGAAGGCGUCCAAA [Meechl Ex3 2 R2 v8]” were, in that order, 94.5 nM and 215 nM.
For “AAAGGAGUAGGAUAUACAUGAGGAUCACCCAUGUAAAAAACAUAAUAAAAGAACUUAUGUAGAAGGGCUCCAAA [69%, Moding Meechl, 11]”, the results for the “apparent KD of MS2 coat protein” value in the series on MS2 coat protein [1] and with MS2 coat protein [2] were 35.8 nM and 77.9 nM, respectively.
The like results for “AAGAAGUCAGGAUAUGCUGCUCGUCACAAAAGUGAUGAGUAGCAGAAGGGACAUGAGGAUCACCCAUGUAAAGA [JL eternac mod 0]” were, in that order, 52 nM and 67.5 nM.
